In the RNAGym collection of RNA variant scans (doi:10.7554/elife.90254) one finds self-cleavage data, which are given here for 56 variants.

The chains are these.
B1: LINE1-mini (parent)
chain: GGCAGAGCUCAACACAGCGUGGCAAAGUGGCUGUGGCUAGACUGCC

In this series the parent is B1. In words: self-cleavage, relative activity (ratio to wild type); higher = more cleavage; in vitro, sequencing; the parent is a self-cleaving ribozyme.
Consider GGCAGAACUCAACACAGCGUGGCAAAGUGGCUGUGGCUAGAGUGCC [G7A C42G], for which the self-cleavage stood at 0.05.

With GGCAGAACUCAACACAGCGUGGCAAAGUGGCUGUGGCUAGAUUGCC [G7A C42U], the self-cleavage is 0.16.

Consider GGCAGAACUCAACACAGCGUGGCAAAGUGGCUGUGGCUAGAAUGCC [G7A C42A], for which the self-cleavage was found to be 0.18.

For GGCAGACCUCAACACAGCGUGGCAAAGUGGCUGUGGCUAGCCUGCC [G7C A41C], the self-cleavage amounted to 0.09.

With GGCAGACCUCAACACAGCGUGGCAAAGUGGCUGUGGCUAGGCUGCC [G7C A41G], the self-cleavage worked out at 0.04.

Take GGCAGAACUCAACACAGCGUGGGAAAGUGGCUGUGGCUAGACUGCC [G7A C23G]: the self-cleavage came to 0.21.

On to GGCAGAACUCAACACAGCGUGGUAAAGUGGCUGUGGCUAGACUGCC [G7A C23U], for which the self-cleavage came to 0.11.

With GGCAGAACUCAACACAGCGUGGAAAAGUGGCUGUGGCUAGACUGCC [G7A C23A], the self-cleavage was 0.15.

GGCAGACCUCAACACAGCGUGGCAGAGUGGCUGUGGCUAGACUGCC [G7C A25G]: the self-cleavage was determined as 0.06.

Consider GGCAGACCUCAACACAGCGUGGCAUAGUGGCUGUGGCUAGACUGCC [G7C A25U], for which the self-cleavage was determined as 0.16.

With GGCAGACCUCAACACAGCGUGGCACAGUGGCUGUGGCUAGACUGCC [G7C A25C], the self-cleavage came to 0.14.

Take GGCAGACCUCAACACAGCGUGGCAAAGUGGCUGUGGCUCGACUGCC [G7C A39C]: the self-cleavage was 0.21.

In the case of GGCAGACCUCAACACAGCGUGGCAAAGUGGCUGUGGCUGGACUGCC [G7C A39G], the self-cleavage amounted to 0.08.

Regarding GGCAGACCUCAACACAGCGUGGCAAAGUGGCUGUGGCUUGACUGCC [G7C A39U], the self-cleavage came to 0.15.

As to GGCAGAACUCAACACAGCGUGGCAAAGUGGCUAUGGCUAGACUGCC [G7A G33A], the self-cleavage turned out to be 0.29.

Regarding GGCAGAACUCAACACAGCGUGGCAAAGUGGCUUUGGCUAGACUGCC [G7A G33U], the self-cleavage amounted to 0.18.

For GGCAGAACUCAACACAGCGUGGCAAAGUGGCUCUGGCUAGACUGCC [G7A G33C], the self-cleavage came to 0.12.

On to GGCAGAACUCAACACAGCGUGGCAAAGAGGCUGUGGCUAGACUGCC [G7A U28A], for which the self-cleavage is 0.16.

As to GGCAGAACUCAACACAGCGUGGCAAAGGGGCUGUGGCUAGACUGCC [G7A U28G], the self-cleavage worked out at 0.16.

For the variant GGCAGAACUCAACACAGCGUGGCAAAGCGGCUGUGGCUAGACUGCC [G7A U28C], the self-cleavage came out at 0.11.

As to GGCAGAACUCAACACAGCCUGGCAAAGUGGCUGUGGCUAGACUGCC [G7A G19C], the self-cleavage came to 0.09.

In the case of GGCAGAACUCAACACAGCAUGGCAAAGUGGCUGUGGCUAGACUGCC [G7A G19A], the self-cleavage turned out to be 0.26.

For GGCAGAACUCAACACAGCUUGGCAAAGUGGCUGUGGCUAGACUGCC [G7A G19U], the self-cleavage came out at 0.11.

GGCAGAACUCAACACAGCGUGGCAAAGUGGCCGUGGCUAGACUGCC [G7A U32C]: the self-cleavage is 0.17.

Turning to GGCAGAACUCAACACAGCGUGGCAAAGUGGCAGUGGCUAGACUGCC [G7A U32A], the self-cleavage turned out to be 0.13.

Turning to GGCAGAACUCAACACAGCGUGGCAAAGUGGCGGUGGCUAGACUGCC [G7A U32G], the self-cleavage came out at 0.11.

For GGCAGAACUCAACACAGCGUGGCAAAGUCGCUGUGGCUAGACUGCC [G7A G29C], the self-cleavage came to 0.07.

Take GGCAGAACUCAACACAGCGUGGCAAAGUUGCUGUGGCUAGACUGCC [G7A G29U]: the self-cleavage is 0.2.

For GGCAGAACUCAACACAGCGUGGCAAAGUAGCUGUGGCUAGACUGCC [G7A G29A], the self-cleavage was found to be 0.09.

Turning to GGCAGAACUCAACACAGCGUGUCAAAGUGGCUGUGGCUAGACUGCC [G7A G22U], the self-cleavage is 0.14.

Consider GGCAGAACUCAACACAGCGUGACAAAGUGGCUGUGGCUAGACUGCC [G7A G22A], for which the self-cleavage turned out to be 0.14.

Consider GGCAGAACUCAACACAGCGUGCCAAAGUGGCUGUGGCUAGACUGCC [G7A G22C], for which the self-cleavage is 0.13.

For GGCAGAACUCAACACAGCGUGGCAAAGUGGCUGUUGCUAGACUGCC [G7A G35U], the self-cleavage came out at 0.11.

For GGCAGAACUCAACACAGCGUGGCAAAGUGGCUGUAGCUAGACUGCC [G7A G35A], the self-cleavage was 0.3.

For GGCAGAACUCAACACAGCGUGGCAAAGUGGCUGUCGCUAGACUGCC [G7A G35C], the self-cleavage amounted to 0.13.

On to GGCAGAACUCAACACAGCGCGGCAAAGUGGCUGUGGCUAGACUGCC [G7A U20C], for which the self-cleavage worked out at 0.07.

For GGCAGAACUCAACACAGCGAGGCAAAGUGGCUGUGGCUAGACUGCC [G7A U20A], the self-cleavage turned out to be 0.12.

As to GGCAGAACUCAACACAGCGGGGCAAAGUGGCUGUGGCUAGACUGCC [G7A U20G], the self-cleavage is 0.06.

As to GGCAGACCUCAACACAGCGUGGCAAAGUGGCUGUGGCUAGACUGCC [G7C], the self-cleavage was 0.13.

For the variant GGCAGACCUCAACGCAGCGUGGCAAAGUGGCUGUGGCUAGACUGCC [G7C A14G], the self-cleavage turned out to be 0.08.

As for GGCAGACCUCAACCCAGCGUGGCAAAGUGGCUGUGGCUAGACUGCC [G7C A14C], the self-cleavage was determined as 0.23.

In the case of GGCAGACCUCAACUCAGCGUGGCAAAGUGGCUGUGGCUAGACUGCC [G7C A14U], the self-cleavage was determined as 0.15.

In the case of GGCAGAACUCAACACAGCGUGGCAAAGUGGCUGUGGGUAGACUGCC [G7A C37G], the self-cleavage was found to be 0.05.

As to GGCAGAACUCAACACAGCGUGGCAAAGUGGCUGUGGUUAGACUGCC [G7A C37U], the self-cleavage was 0.11.

For the variant GGCAGAACUCAACACAGCGUGGCAAAGUGGCUGUGGAUAGACUGCC [G7A C37A], the self-cleavage was determined as 0.18.

Take GGCAGAACUCAACAUAGCGUGGCAAAGUGGCUGUGGCUAGACUGCC [G7A C15U]: the self-cleavage is 0.24.

For the variant GGCAGAACUCAACAAAGCGUGGCAAAGUGGCUGUGGCUAGACUGCC [G7A C15A], the self-cleavage was found to be 0.19.

For the variant GGCAGAACUCAACAGAGCGUGGCAAAGUGGCUGUGGCUAGACUGCC [G7A C15G], the self-cleavage is 0.12.

Regarding GGCAGAACUCAACACAGCGUGGCAAAGUGGCUGUGGCAAGACUGCC [G7A U38A], the self-cleavage was 0.09.

On to GGCAGAACUCAACACAGCGUGGCAAAGUGGCUGUGGCCAGACUGCC [G7A U38C], for which the self-cleavage came out at 0.1.

Regarding GGCAGAACUCAACACAGCGUGGCAAAGUGGCUGUGGCGAGACUGCC [G7A U38G], the self-cleavage came out at 0.02.

For the variant GGCAGAACUCAACACAUCGUGGCAAAGUGGCUGUGGCUAGACUGCC [G7A G17U], the self-cleavage is 0.12.

In the case of GGCAGAACUCAACACACCGUGGCAAAGUGGCUGUGGCUAGACUGCC [G7A G17C], the self-cleavage came out at 0.18.

On to GGCAGAACUCAACACAACGUGGCAAAGUGGCUGUGGCUAGACUGCC [G7A G17A], for which the self-cleavage was 0.16.

GGCAGACCUCAACACAGCGUGGCUAAGUGGCUGUGGCUAGACUGCC [G7C A24U]: the self-cleavage is 0.19.

Take GGCAGACCUCAACACAGCGUGGCCAAGUGGCUGUGGCUAGACUGCC [G7C A24C]: the self-cleavage was 0.09.
